Test results taken from patent US20230087125A1 (Memorial Sloan Kettering, published 2023).

T1: human CD127 (IL-7R), as used in the scFv binding experiments (human, UniProt P16871 21-239, limits assumed)
T1 construct: also called IL-7Ralpha; interleukin-7 receptor subunit alpha
T1 sequence: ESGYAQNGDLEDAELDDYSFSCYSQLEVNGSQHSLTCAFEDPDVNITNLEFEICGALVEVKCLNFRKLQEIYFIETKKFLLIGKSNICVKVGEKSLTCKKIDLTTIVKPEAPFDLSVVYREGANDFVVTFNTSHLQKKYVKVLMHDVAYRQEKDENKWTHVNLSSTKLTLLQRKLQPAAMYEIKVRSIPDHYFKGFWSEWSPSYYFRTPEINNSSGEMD


Biological target: T1, human CD127 (IL-7R), as used in the …
Assay: scFv binding experiment, given as ED50; method and format not stated (FIG. 1A)

| EC50 | Binder |
| --- | --- |
| 3.32 µg/mL | scFv703-Fc (VH-VL) (Fc fusion, The Fc is not described; also called scFv703HL; VH-VL scFv of OSE703; not shown: The Fc part implied by the name scFv703-Fc, and any hinge or linker to it) scFv: AVQLVESGGGLVQPGGSLKITCAASGFTFTNAAMYWVRQAPGKGLEWVARIRTKANNYATYYADSVKGRFTISRDDSKSTVYLQMDSVKTEDTATYYCIVVVLTTTRDYFDYWGQGVLVTVSSGGGGSGGGGSGGGGSDIVLTQSPSSLPVTPGEPASISCRSSQSLLTVKGITSLYWFLQKPGQSPKLLIYRMSNRDSGVPDRFSGSGSETDFTLKISRVEAEDVGTYYCAQFLEYPHTFGAGTKLELK |
| 0.539 µg/mL | scFv703-Fc (VL-VH) (Fc fusion, The Fc is not described; also called scFv703LH; VL-VH scFv of OSE703; not shown: The Fc part implied by the name scFv703-Fc, and any hinge or linker to it) scFv: DIVLTQSPSSLPVTPGEPASISCRSSQSLLTVKGITSLYWFLQKPGQSPKLLIYRMSNRDSGVPDRFSGSGSETDFTLKISRVEAEDVGTYYCAQFLEYPHTFGAGTKLELKGGGGSGGGGSGGGGSAVQLVESGGGLVQPGGSLKITCAASGFTFTNAAMYWVRQAPGKGLEWVARIRTKANNYATYYADSVKGRFTISRDDSKSTVYLQMDSVKTEDTATYYCIVVVLTTTRDYFDYWGQGVLVTVSS |
